In patent US10533167:
Blank lines part the entries; values can stand above or below the substance they belong to.

How the values were obtained:
Assay in all cases: cell-based or functional assay
[1] = target: FUSN-Cry2olig (N-terminal IDR of FUS fused to mCherry-labeled Cry2olig, Cry2 E490G) (human; Arabidopsis thaliana) (UniProt Q96524)
[2] = target: optoDDX4 (N-terminal IDR of Ddx4 fused to mCherry-labeled Cry2WT) (human; Arabidopsis thaliana) (UniProt Q96524)
[3] = target: optoFUS (N-terminal IDR of FUS fused to mCherry-labeled Cry2 PHR, Cry2WT) (human; Arabidopsis thaliana) (UniProt Q96524)

- saturation concentration for light-activated clustering, relative to optoFUS (fold lower than optoFUS) [1]: 5
Substance: FUSN-Cry2olig (N-terminal IDR of FUS fused to mCherry-labeled Cry2olig, Cry2 E490G) (from UniProt Q96524 1-498)

- saturation concentration (Csat) for light-activated phase separation, relative to optoFUS (fold lower than optoFUS) [2]: 2
Substance: optoDDX4 (N-terminal IDR of Ddx4 fused to mCherry-labeled Cry2WT) (from UniProt Q96524 1-498)

- saturation concentration (Csat) for light-activated phase separation in NIH 3T3 cells [3]: 1.4 µM
Substance: optoFUS (N-terminal IDR of FUS fused to mCherry-labeled Cry2 PHR, Cry2WT) (from UniProt Q96524 1-498)
